Legend:
[1] = target: T1, amphyphisin SH3 (AMPH_HUMAN), P49418; test: SPOT array
T1 chain: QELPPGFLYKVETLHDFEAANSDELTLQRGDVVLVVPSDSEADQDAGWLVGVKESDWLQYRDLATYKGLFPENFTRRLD

[2] = target: endophilin SH3 (SH3G2_HUMAN), Q99962; test: SPOT array

B1: Q9Y6T1 410-424 (peptide)
chain: STAGPLRPPPPGAG
Q: B1 was tested. Which normalised SPOT signal, Boehringer light units (BLU); mean over the file's lines of this peptide [1] did it give?
A: 61.4

Q: And the normalised SPOT signal, Boehringer light units (BLU); mean over the file's lines of this peptide [2]?
A: 1850

B2: P39880 1446-1459 (peptide)
chain: SSSAPRRPSSLQSL
Q: Which results are given for B2?
A: normalised SPOT signal, Boehringer light units (BLU); mean over the file's lines of this peptide [1]: 37.2; normalised SPOT signal, Boehringer light units (BLU); mean over the file's lines of this peptide [2]: 1050

B3: Q9NPJ5 421-434 (peptide)
chain: SVVGIRRPFQIPPG
Q: With B3 as the binder, how does the normalised SPOT signal, Boehringer light units (BLU); mean over the file's lines of this peptide [1] read?
A: 33.8

Q: And the normalised SPOT signal, Boehringer light units (BLU); mean over the file's lines of this peptide [2]?
A: 127

B4: P30670 54-67 (peptide)
chain: SSTNPFRPQKVSSF
Q: For B4, which normalised SPOT signal, Boehringer light units (BLU); mean over the file's lines of this peptide [1] is on record?
A: 77.5

Q: What about the normalised SPOT signal, Boehringer light units (BLU); mean over the file's lines of this peptide [2] of the same binder?
A: 1350

B5: Q16456 13-26 (peptide)
chain: SDTSPRRPLRPTPN
Q: With B5 as the binder, how does the normalised SPOT signal, Boehringer light units (BLU); mean over the file's lines of this peptide [1] read?
A: 3520

Q: And the normalised SPOT signal, Boehringer light units (BLU); mean over the file's lines of this peptide [2]?
A: 1300

B6: O00124 234-247 (peptide)
chain: STSFPRRPLAVEGG
Q: How did the normalised SPOT signal, Boehringer light units (BLU); mean over the file's lines of this peptide [1] turn out when B6 was run?
A: 53

Q: What about the normalised SPOT signal, Boehringer light units (BLU); mean over the file's lines of this peptide [2] of the same binder?
A: 132

B7: Q9H2X0 201-214 (peptide)
chain: SYRRLDRPTRIRFS
Q: For B7, which normalised SPOT signal, Boehringer light units (BLU); mean over the file's lines of this peptide [1] is on record?
A: 780

Q: And the normalised SPOT signal, Boehringer light units (BLU); mean over the file's lines of this peptide [2]?
A: 2240

B8: Q9NQV6 563-576 (peptide)
chain: SDKAFSRPDKLRLH
Q: With B8 as the binder, how does the normalised SPOT signal, Boehringer light units (BLU); mean over the file's lines of this peptide [1] read?
A: 117

Q: What about the normalised SPOT signal, Boehringer light units (BLU); mean over the file's lines of this peptide [2] of the same binder?
A: 54.6

B9: Q9Y5M0 381-394 (peptide)
chain: SSPLLKRPVRTQAV
Q: With B9 as the binder, how does the normalised SPOT signal, Boehringer light units (BLU); mean over the file's lines of this peptide [1] read?
A: 1640

Q: What about the normalised SPOT signal, Boehringer light units (BLU); mean over the file's lines of this peptide [2] of the same binder?
A: 195

B10: Q16099 865-879 (peptide)
chain: AAVPPPRPPIPEER
Q: What does the source list for B10?
A: normalised SPOT signal, Boehringer light units (BLU); mean over the file's lines of this peptide [1]: 419; normalised SPOT signal, Boehringer light units (BLU); mean over the file's lines of this peptide [2]: 4290

B11: Q9NUN8 9-22 (peptide)
chain: SEEHPRRPDHGRRG
Q: Which results are given for B11?
A: normalised SPOT signal, Boehringer light units (BLU); mean over the file's lines of this peptide [1]: 17.2; normalised SPOT signal, Boehringer light units (BLU); mean over the file's lines of this peptide [2]: 55.3

B12: O43147 533-547 (peptide)
chain: SVIPPDRPPGASAG
Q: For B12, which normalised SPOT signal, Boehringer light units (BLU); mean over the file's lines of this peptide [1] is on record?
A: 53.4

Q: And the normalised SPOT signal, Boehringer light units (BLU); mean over the file's lines of this peptide [2]?
A: 72.8

B13: P48200 444-457 (peptide)
chain: SVSGPKRPQDRVAV
Q: With B13 as the binder, how does the normalised SPOT signal, Boehringer light units (BLU); mean over the file's lines of this peptide [1] read?
A: 38.9

Q: And the normalised SPOT signal, Boehringer light units (BLU); mean over the file's lines of this peptide [2]?
A: 67.2

B14: Q96AA8 422-435 (peptide)
chain: SSKPIKRPVLDPFI
Q: Which results are given for B14?
A: normalised SPOT signal, Boehringer light units (BLU); mean over the file's lines of this peptide [1]: 35.4; normalised SPOT signal, Boehringer light units (BLU); mean over the file's lines of this peptide [2]: 189

B15: Q9H6E1 737-750 (peptide)
chain: SWQILARPWRAFFK
Q: What does the source list for B15?
A: normalised SPOT signal, Boehringer light units (BLU); mean over the file's lines of this peptide [1]: 1030; normalised SPOT signal, Boehringer light units (BLU); mean over the file's lines of this peptide [2]: 73.5

B16: P78325 741-754 (peptide)
chain: SSVALKRPPPAPPV
Q: B16 was tested. Which normalised SPOT signal, Boehringer light units (BLU); mean over the file's lines of this peptide [1] did it give?
A: 24.3

Q: And the normalised SPOT signal, Boehringer light units (BLU); mean over the file's lines of this peptide [2]?
A: 21.2

B17: Q9H0N0 213-227 (peptide)
chain: SSTLPQKPPYSFID
Q: What does the source list for B17?
A: normalised SPOT signal, Boehringer light units (BLU); mean over the file's lines of this peptide [1]: 56.1; normalised SPOT signal, Boehringer light units (BLU); mean over the file's lines of this peptide [2]: 27.3

B18: Q9Y256 12-26 (peptide)
chain: SVSRPERPPESAAL
Q: How did the normalised SPOT signal, Boehringer light units (BLU); mean over the file's lines of this peptide [1] turn out when B18 was run?
A: 85.5

Q: What about the normalised SPOT signal, Boehringer light units (BLU); mean over the file's lines of this peptide [2] of the same binder?
A: 102

B19: Q9H6E9 501-514 (peptide)
chain: SWPLLERPWKAFLN
Q: With B19 as the binder, how does the normalised SPOT signal, Boehringer light units (BLU); mean over the file's lines of this peptide [1] read?
A: 12.2

Q: What about the normalised SPOT signal, Boehringer light units (BLU); mean over the file's lines of this peptide [2] of the same binder?
A: 179

B20: Q9UBS0 458-472 (peptide)
chain: TAPLPIRPPSGTKK
Q: With B20 as the binder, how does the normalised SPOT signal, Boehringer light units (BLU); mean over the file's lines of this peptide [1] read?
A: 468

Q: What about the normalised SPOT signal, Boehringer light units (BLU); mean over the file's lines of this peptide [2] of the same binder?
A: 1100

B21: O60825 472-485 (peptide)
chain: SSNTIRRPRNYSVG
Q: Which normalised SPOT signal, Boehringer light units (BLU); mean over the file's lines of this peptide [1] does the source give for B21 here?
A: 31.8

Q: And the normalised SPOT signal, Boehringer light units (BLU); mean over the file's lines of this peptide [2]?
A: 7.4

B22: Q9P2A7 954-967 (peptide)
chain: SSPEPPRPAKRPRR
Q: With B22 as the binder, how does the normalised SPOT signal, Boehringer light units (BLU); mean over the file's lines of this peptide [1] read?
A: 614

Q: What about the normalised SPOT signal, Boehringer light units (BLU); mean over the file's lines of this peptide [2] of the same binder?
A: 181

B23: Q9H875 7-20 (peptide)
chain: SSVRPPRPKKEPQT
Q: How did the normalised SPOT signal, Boehringer light units (BLU); mean over the file's lines of this peptide [1] turn out when B23 was run?
A: 2350

Q: And the normalised SPOT signal, Boehringer light units (BLU); mean over the file's lines of this peptide [2]?
A: 1060

B24: Q9H6A9 359-372 (peptide)
chain: TAVPPKRPYGTQRT
Q: With B24 as the binder, how does the normalised SPOT signal, Boehringer light units (BLU); mean over the file's lines of this peptide [1] read?
A: 37.8

Q: What about the normalised SPOT signal, Boehringer light units (BLU); mean over the file's lines of this peptide [2] of the same binder?
A: 398

B25: Q14160 1547-1560 (peptide)
chain: SSRRPVRPGRRGLG
Q: Which normalised SPOT signal, Boehringer light units (BLU); mean over the file's lines of this peptide [1] does the source give for B25 here?
A: 7270

Q: And the normalised SPOT signal, Boehringer light units (BLU); mean over the file's lines of this peptide [2]?
A: 1850

B26: P55055 405-418 (peptide)
chain: SYTRIKRPQDQLRF
Q: How did the normalised SPOT signal, Boehringer light units (BLU); mean over the file's lines of this peptide [1] turn out when B26 was run?
A: 38.5

Q: And the normalised SPOT signal, Boehringer light units (BLU); mean over the file's lines of this peptide [2]?
A: 128

B27: Q8WWY6 31-44 (peptide)
chain: SSYTFKRPVTRITP
Q: With B27 as the binder, how does the normalised SPOT signal, Boehringer light units (BLU); mean over the file's lines of this peptide [1] read?
A: 18.6

Q: What about the normalised SPOT signal, Boehringer light units (BLU); mean over the file's lines of this peptide [2] of the same binder?
A: 89.6

B28: O94820 555-568 (peptide)
chain: STQSLKRPGTSQAG
Q: Which normalised SPOT signal, Boehringer light units (BLU); mean over the file's lines of this peptide [1] does the source give for B28 here?
A: 42

Q: What about the normalised SPOT signal, Boehringer light units (BLU); mean over the file's lines of this peptide [2] of the same binder?
A: 5.6

B29: Q96M73 46-59 (peptide)
chain: TDNKFRRPWTRVSA
Q: What does the source list for B29?
A: normalised SPOT signal, Boehringer light units (BLU); mean over the file's lines of this peptide [1]: 40.3; normalised SPOT signal, Boehringer light units (BLU); mean over the file's lines of this peptide [2]: 20.5

B30: Q9BY07 808-821 (peptide)
chain: SVIKPPRPDRGWFV
Q: How did the normalised SPOT signal, Boehringer light units (BLU); mean over the file's lines of this peptide [1] turn out when B30 was run?
A: 1520

Q: And the normalised SPOT signal, Boehringer light units (BLU); mean over the file's lines of this peptide [2]?
A: 4940

B31: Q9UMX9 24-37 (peptide)
chain: SVEPPKRPTSRLIM
Q: Which results are given for B31?
A: normalised SPOT signal, Boehringer light units (BLU); mean over the file's lines of this peptide [1]: 36; normalised SPOT signal, Boehringer light units (BLU); mean over the file's lines of this peptide [2]: 480

B32: Q9NYY3 591-604 (peptide)
chain: SVTDIRRPRLYLLQ
Q: With B32 as the binder, how does the normalised SPOT signal, Boehringer light units (BLU); mean over the file's lines of this peptide [1] read?
A: 35.9

Q: And the normalised SPOT signal, Boehringer light units (BLU); mean over the file's lines of this peptide [2]?
A: 96.5

B33: O94930 369-382 (peptide)
chain: SSRDLSRPPKKGEL
Q: For B33, which normalised SPOT signal, Boehringer light units (BLU); mean over the file's lines of this peptide [1] is on record?
A: 119

Q: What about the normalised SPOT signal, Boehringer light units (BLU); mean over the file's lines of this peptide [2] of the same binder?
A: 109

B34: Q12789 1979-1992 (peptide)
chain: SVSFIGRPWRVVDG
Q: B34 was tested. Which normalised SPOT signal, Boehringer light units (BLU); mean over the file's lines of this peptide [1] did it give?
A: 112

Q: What about the normalised SPOT signal, Boehringer light units (BLU); mean over the file's lines of this peptide [2] of the same binder?
A: 78.1

B35: O75962 1703-1716 (peptide)
chain: SSPGPKRPGNTLRK
Q: For B35, which normalised SPOT signal, Boehringer light units (BLU); mean over the file's lines of this peptide [1] is on record?
A: 51.9

Q: What about the normalised SPOT signal, Boehringer light units (BLU); mean over the file's lines of this peptide [2] of the same binder?
A: 619

B36: Q9NT59 32-46 (peptide)
chain: TASPPARPPAQVGL
Q: Which results are given for B36?
A: normalised SPOT signal, Boehringer light units (BLU); mean over the file's lines of this peptide [1]: 34.4; normalised SPOT signal, Boehringer light units (BLU); mean over the file's lines of this peptide [2]: 365

B37: Q9HBU5 808-821 (peptide)
chain: SVIKPTRPDRGWFV
Q: Which normalised SPOT signal, Boehringer light units (BLU); mean over the file's lines of this peptide [1] does the source give for B37 here?
A: 4960

Q: And the normalised SPOT signal, Boehringer light units (BLU); mean over the file's lines of this peptide [2]?
A: 3200

B38: O75179 569-582 (peptide)
chain: SVNHIKRPHSVPSS
Q: Which results are given for B38?
A: normalised SPOT signal, Boehringer light units (BLU); mean over the file's lines of this peptide [1]: 16.7; normalised SPOT signal, Boehringer light units (BLU); mean over the file's lines of this peptide [2]: 133

B39: P16144 1660-1673 (peptide)
chain: SWERPRRPNGDIVG
Q: What does the source list for B39?
A: normalised SPOT signal, Boehringer light units (BLU); mean over the file's lines of this peptide [1]: 3700; normalised SPOT signal, Boehringer light units (BLU); mean over the file's lines of this peptide [2]: 2770

B40: Q9UDN0 30-43 (peptide)
chain: TAKKIKRPKFTVPQ
Q: For B40, which normalised SPOT signal, Boehringer light units (BLU); mean over the file's lines of this peptide [1] is on record?
A: 42.6

Q: What about the normalised SPOT signal, Boehringer light units (BLU); mean over the file's lines of this peptide [2] of the same binder?
A: 15.1

B41: P51172 134-147 (peptide)
chain: SDGNPRRPSPVLRH
Q: For B41, which normalised SPOT signal, Boehringer light units (BLU); mean over the file's lines of this peptide [1] is on record?
A: 60.5

Q: And the normalised SPOT signal, Boehringer light units (BLU); mean over the file's lines of this peptide [2]?
A: 577

B42: P55201 901-914 (peptide)
chain: TAGPPKRPGRPPKN
Q: Which results are given for B42?
A: normalised SPOT signal, Boehringer light units (BLU); mean over the file's lines of this peptide [1]: 5130; normalised SPOT signal, Boehringer light units (BLU); mean over the file's lines of this peptide [2]: 93.8
